Experimental findings from PMC11974786 (bioRxiv, 2025) are described below.

Assay [1] has as its target T1, KpOptS (Klebsiella pneumoniae, UniProt A0A2G9LI54).
T1 sequence (A0A2G9LI54 1-119): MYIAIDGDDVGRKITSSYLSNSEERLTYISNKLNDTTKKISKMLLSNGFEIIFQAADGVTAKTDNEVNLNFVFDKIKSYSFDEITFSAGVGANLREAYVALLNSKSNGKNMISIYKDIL
As to the kind of experiment: HPLC and LC-MS product analysis. The following applies: 100 μM OptS, 1 mM MnCl2, 10 mM MgSO4, pH 7.4, 100 mM NaCl. It counts as biochemical.

The target in assay [2] is OptS from Klebsiella pneumoniae strain KP67 (Klebsiella pneumoniae strain KP67). As to the kind of experiment: SEC.
Assay [3] shares this target. Nature of the assay: SEC. The source holds these as a separate data set. In general terms: In gel filtration, larger molecules generally elute earlier.
Assay [4] has the same target. Nature of the assay: crystal structure.

Take `Nc1ncnc2c1ncn2[C@@H]1O[C@H](COP(=O)(O)OP(=O)(O)OP(=O)(O)O)[C@@H](O)[C@H]1O` [ATP]: in assay [1], the “HPLC and LC-MS product analysis” value was “The largest abundance product observed was derived from ATP”.
For the compound “OptS from Klebsiella pneumoniae strain KP67 (enzyme)”, the stoichiometry N in assay [2] is 4; in assay [3] it was above 3; in assay [4], 4.

For orientation: stoichiometry N means the number of molecules, sites or subunits per partner or assembly.
